In assay [1] the target is T1, recombinant FL spike WT-6P (SARS-CoV-2 WT (Wuhan-Hu-1), UniProt P0DTC2, stabilised, biotin (EZ-Link Sulfo-NHS-Biotin) in the BLI experiments). In words: ELISA. Particulars: both partners purified. In general terms: An ELISA detects its analyte on a solid surface through an enzyme-linked reagent.
Assay [2] concerns the target T1, recombinant FL spike WT-6P. In words: BLI. Particulars: both partners purified.
The target of assay [3] is recombinant FL spike B.1.1.7 Alpha, stabilized by 2P mutations (SARS-CoV-2 B.1.1.7 Alpha, strain).
Assay [4] addresses recombinant FL spike B.1.351 Beta, stabilized by 2P mutations (SARS-CoV-2, B.1.351 Beta, strain).
Assay [5] addresses recombinant FL spike P.1 Gamma, stabilized by 2P mutations (SARS-CoV-2, P.1 Gamma, strain).
The target of assay [6] is recombinant FL spike B.1.617.2 Delta, stabilized by 2P mutations (SARS-CoV-2, B.1.617.2 Delta, strain).

B1: S728-1157 IgG (antibody, V domains shown)
VH: EVQLVESGGGLVQPGGSLRLSCAASGLLVSRNYMNWVRQAPGKGLEWVSIIYSGGSTFYADSVEGRFTISRDESKNTLYLQMNSLRTDDTAVYYCARDLSDYGGIDCWGQGTLVTVSS
VL: YELTQPLSVSMALGQTARISCGGDNVGSQNVHWYQQRPGQAPVLVIYRDSNRPSGIPERFSGSKSGNTATLTISRAQAGDEADYYCQVWDSSTVAFGGGTKLTVL
notes: copies: 2 + 2
As for B1, the binding result in assay [1] is given as “binds”.

B2: S728-1157 Fab (Fab, V domains shown)
VH: B1 VH
VL: B1 VL
In the case of B2, the binding result in assay [2] is on record as “binds”.

B3: S626-161 (antibody, V domains shown)
VH: QLQLQESGPGLVKPSEALSLTCTVSGGSISTSNYYWGWIRQPPGKGLEWIGSIYYRGGTHYNPSLKTRVTISVDTSKNQFSLKLSSVTAADTAVYYCARHTYFYDIVGAAVWEPFDIWGQGTMVTVSS
VL: not shown
As to B3, the binding result in assay [3], in assay [4], in assay [5] and in assay [6] was “binds” in each case.

B4: S451-1140 (antibody, V domains shown)
VH: EVQLVESGGGLVPPGGSLRLSCAASGFIFSNYAMTWVRQAPGKGLEWVSAISGGGGSTDYADSVKGRFTISRDNSKNTLYLQMNSLRAEDTAVYYCAKDLFGSGWSLFDNWGQGTLVTVS
VL: not shown
Consider B4, for which the binding result in assay [3], in assay [4], in assay [5] and in assay [6] was “binds” in each case.

For the origin of these results see publication PMC10104900 (The Journal of Clinical Investigation, 2023).
